{"source": "patent US20070104719A1", "about": "“Caspase Activated Prodrugs Therapy” (Genentech, Inc., priority 2000, published 2007)", "key": {"[1]": {"test_system": "MCF7 breast carcinoma cells", "experiment": "Cellular accumulation of doxorubicin and Ac-DEVD-PABC-doxorubicin (fluorescence)", "type": "cell-based, human", "conditions": "10 μM, 0 to 2 h at 37° C.", "method": "(§1) FIG. 1. Cellular accumulation of caspase cleavable prodrug Ac-DEVD-PABC-Doxorubicin in SK-BR-3 and MCF7 cells. Uptake of doxorubicin was estimated from a standard curve prepared using known quantities of doxorubicin that were added to the previously untreated cells.\n(§2) SK-BR-3 and MCF7 breast carcinoma cells (American Type Culture Collection (ATCC), Rockville, Md.) were cultured in Dulbecco's modified Eagle's medium:Ham's nutrient F-12 (50:50) supplemented with […] glutamine, 100 units/mL penicillin, […] streptomycin (Gibco BRL, Grand Island, N.Y.), and 10% (w/v) bovine fetal serum (Hyclone, Logan, Utah) (cell media) at 37° C., 5% CO2. Adherantly growing cells were detached by treatment with phosphate-buffered saline containing 0.05% trypsin, 0.6 mM EDTA (5 min) and then resuspended at 10^6 cells per mL in fresh cell media. Cells were either used directly (“untreated”) or supplemented with doxorubicin or Ac-DEVD-PABC-doxorubicin into a final concentration of 10 μM. […] Fluorescence measurements were then undertaken using a fluorescent plate reader (Fluoroskan, Helsinki, Finland) with absorption and emission wavelengths of 485 and 590 nm respectively. Uptake of doxorubicin was estimated from a standard curve prepared using known quantities of doxorubicin that were added to the previously untreated cells."}, "[2]": {"test_system": "SK-BR-3 breast carcinoma cells", "experiment": "Cellular accumulation of doxorubicin and Ac-DEVD-PABC-doxorubicin (fluorescence)", "type": "cell-based, human", "conditions": "SK-BR-3 cells, 10 μM, 0 to 2 h at 37° C.", "method": "as §1, §2"}, "[3]": {"target": "T1, recombinant human caspase 3 (Homo sapiens, UniProt P42574)", "T1 construct": "purchased Calbiochem", "T1 sequence (P42574 29-175 limits assumed)": "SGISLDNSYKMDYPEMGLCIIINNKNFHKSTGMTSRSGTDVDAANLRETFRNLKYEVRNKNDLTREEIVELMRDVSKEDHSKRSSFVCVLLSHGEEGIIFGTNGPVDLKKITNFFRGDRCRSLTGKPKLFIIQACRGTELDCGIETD", "T1 sequence (P42574 176-277 limits assumed)": "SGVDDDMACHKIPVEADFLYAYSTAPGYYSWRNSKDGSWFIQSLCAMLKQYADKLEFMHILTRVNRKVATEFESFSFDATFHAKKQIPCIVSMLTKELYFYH", "experiment": "Activation of Ac-DEVD-PABC-taxol by caspase 3 (HPLC)", "type": "biochemical", "method": "Ac-DEVD-PABC-taxol (35 μM) was incubated with 1 ng recombinant human caspase 3 (Calbiochem) in the presence or absence of the caspase 3 inhibitor, Z-DEVD-FMK (400 μM) (Calbiochem) in phosphate-buffered saline containing 5% (v/v) dimethyl sulfoxide and 45 mM DTT in a total reaction volume of 700 μL. A control reaction was performed in which caspase 3 and inhibitor were omitted. Reactions were incubated for 0 to 2 h at 37° C. and then frozen in dry ice. Reactions were then analyzed by reverse phase HPLC using a Microsorb-MV C18 reverse-phase column (4.6 mm internal diameter×250 mm length, 5 μm particle size, 100 Å pore size) (Rainin) under isocratic conditions. 0.1% (v/v) TFA, 46% (v/v) acetonitrile at a now rate of 1.5 mL/min whilst monitoring the absorbance at 254 nm. The retention times for taxol and Ac-DEVD-PABC-taxol were 13.3 min 10.4 min, respectively."}, "[4]": {"target": "T2, recombinant commercial caspase 3 (Homo sapiens, UniProt P42574)", "T2 construct": "purchased", "T2 sequence (P42574 29-175 limits assumed)": "T1 sequence (P42574 29-175 limits assumed)", "T2 sequence (P42574 176-277 limits assumed)": "T1 sequence (P42574 176-277 limits assumed)", "experiment": "Hydrolysis of Ac-DEVD-pna by caspase 3", "type": "biochemical", "text": "(§3) The most favorable substrates for caspases 2, 3 and 7 are DEHD (SEQ ID NO:8), DEVD (SEQ ID NO:3) and DEVD (SEQ ID NO:3) respectively. These sequences are very poor substrates for granzyme B which has the preferred substrate IEPD (SEQ ID NO:13) (Thornberry et al., (1997) supra) and for proinflammatory caspases (caspases 1, 4, 5, 11, 12, 13) which have a preference for a large hydrophobic residue at S4 (caspase 1 WEHD (SEQ ID NO:6), caspase 4 (W/L)EHD, caspase 5 (W/L)EHD)."}, "granzyme B": {"target": "granzyme B (Homo sapiens, UniProt P10144)", "sequence (P10144 21-247, species assumed)": "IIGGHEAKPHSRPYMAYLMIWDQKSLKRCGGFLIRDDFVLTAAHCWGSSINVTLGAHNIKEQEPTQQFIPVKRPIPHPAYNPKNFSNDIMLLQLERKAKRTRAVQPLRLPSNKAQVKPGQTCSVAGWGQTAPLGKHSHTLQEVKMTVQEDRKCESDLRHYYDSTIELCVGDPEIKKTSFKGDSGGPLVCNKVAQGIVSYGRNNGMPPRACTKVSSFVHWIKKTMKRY", "experiment": "Cleavage of Ac-DEVD-pna by granzyme B", "type": "biochemical", "text": "as §3"}}, "note": "Starred links: 1 amine or outer side, 2 acyl side, 3 side chain; linkers in the order of their positions; H or OH if unused. Non-standard residues stand in square brackets, D forms with d. Residues, ends and D or L forms follow the SMILES beside them. *: point of attachment. Doxorubicin(3'-N) = COc1cccc2c1C(=O)c1c(O)c3c(c(O)c1C2=O)C[C@@](O)(C(=O)CO)C[C@@H]3O[C@H]1C[C@H](N*)[C@H](O)[C@H](C)O1; PABC = O=C(OCc1ccc(N[*:1])cc1)[*:2]"}
{"molecule": "COc1cccc2c1C(=O)c1c(O)c3c(c(O)c1C2=O)C[C@@](O)(C(=O)CO)C[C@@H]3O[C@H]1C[C@H](NC(=O)OCc2ccc(NC(=O)[C@H](CC(=O)O)NC(=O)[C@@H](NC(=O)[C@H](CCC(=O)O)NC(=O)[C@H](CC(=O)O)NC(C)=O)C(C)C)cc2)[C@H](O)[C@H](C)O1", "note": "[Ac-DEVD-PABC-Doxorubicin, Ac-DEVD-PABC-doxorubicin] (Ac-DEVD[PABC]-{Doxorubicin(3'-N)})", "values": [{"measurement": "accumulation inside cells", "setting": "[1]", "result": "did not"}, {"measurement": "accumulation inside cells", "setting": "[2]", "result": "did not"}]}
{"molecule": "Ac-DEVD-PABC-paclitaxel [Ac-DEVD-PABC-taxol]", "values": [{"measurement": "activation by caspase 3 (conversion to taxol)", "setting": "[3]; 35 μM prodrug, 1 ng caspase 3", "result": "efficiently activated"}, {"measurement": "Conversion (%)", "setting": "[3]; Caspase 3 + inhibitor (Z-DEVD-FMK 400 μM), incubation time 0 min", "result": 0, "unit": "%"}, {"measurement": "Conversion (%)", "setting": "[3]; Caspase 3 + inhibitor (Z-DEVD-FMK 400 μM), incubation time 30 min", "result": 0, "unit": "%"}, {"measurement": "Conversion (%)", "setting": "[3]; Caspase 3 + inhibitor (Z-DEVD-FMK 400 μM), incubation time 120 min", "result": 0, "unit": "%"}, {"measurement": "Conversion (%)", "setting": "[3]; Caspase 3, incubation time 0 min", "result": 0, "unit": "%"}, {"measurement": "Conversion (%)", "setting": "[3]; Caspase 3, incubation time 30 min", "result": 65, "unit": "%"}, {"measurement": "Conversion (%)", "setting": "[3]; Caspase 3, incubation time 120 min", "result": 100, "unit": "%"}]}
{"molecule": "acetyl-L-Asp-L-Glu-L-Val-L-Asp-p-nitroanilide [Ac-DEVD-pna]", "values": [{"measurement": "hydrolysis by caspase 3", "setting": "[4]", "result": "readily hydrolyzed"}, {"measurement": "cleavage by granzyme B", "setting": "granzyme B", "result": "no detectable cleavage"}]}
